B1: human p21-activated kinase 5 (PAK5), full length, expressed in 293 cells from pcDNA3.1 myc-his (protein)
chain: MFGKKKKKIEISGPSNFEHRVHTGFDPQEQKFTGLPQQWHSLLADTANRPKPMVDPSCITPIQLAPMKTIVRGNKPCKETSINGLLEDFDNISVTRSNSLRKESPPTPDQGASSHGPGHAEENGFITFSQYSSESDTTADYTTEKYREKSLYGDDLDPYYRGSHAAKQNGHVMKMKHGEAYYSEVKPLKSDFARFSADYHSHLDSLSKPSEYSDLKWEYQRASSSSPLDYSFQFTPSRTAGTSGCSKESLAYSESEWGPSLDDYDRRPKSSYLNQTSPQPTMRQRSRSGSGLQEPMMPFGASAFKTHPQGHSYNSYTYPRLSEPTMCIPKVDYDRAQMVLSPPLSGSDTYPRGPAKLPQSQSKSGYSSSSHQYPSGYHKATLYHHPSLQSSSQYISTASYLSSLSLSSSTYPPPSWGSSSDQQPSRVSHEQFRAALQLVVSPGDPREYLANFIKIGEGSTGIVCIGTEKHTGKQVAVKKMDLRKQQRRELLFNEVVIMRDYHHDNVVDMYSSYLVGDELWVVMEFLEGGALTDIVTHTRMNEEQIATVCLSVLRALSYLHNQGVIHRDIKSDSILLTSDGRIKLSDFGFCAQVSKEVPKRKSLVGTPYWMAPELISRLPYGTEVDIWSLGIMVIEMIDGEPPYFNEPPLQAMRRIRDSLPPRVKDLHKVSSVLRGFLDLMLVREPSQRATAQELLGHPFLKLAGPPSCIVPLMRQYRHH
For B1, the “kinase assay: incorporation of 32P from [gamma-32P]ATP into substrate, SDS gel and phosphoimager” value (histone H1) was “PAK5 is able to phosphorylate generic kinase substrates such as myelin basic protein and histone H1” and the “kinase assay: incorporation of 32P from [gamma-32P]ATP into substrate, SDS gel and phosphoimager” value (myelin basic protein) was “PAK5 is able to phosphorylate generic kinase substrates such as myelin basic protein and histone H1”.
